Test results from article PMC9482650, “Quantitative fragmentomics allow affinity mapping of interactomes” (Nature Communications, 2022).

T1: APBA2_2, Q99767
T1 sequence (Q99767 654-744, limits assumed, looked up): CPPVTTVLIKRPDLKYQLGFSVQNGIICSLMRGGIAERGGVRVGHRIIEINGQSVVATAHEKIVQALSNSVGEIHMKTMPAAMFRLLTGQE

T2: ARHGAP21, Q5T5U3
T2 sequence (Q5T5U3 45-169, limits assumed, looked up): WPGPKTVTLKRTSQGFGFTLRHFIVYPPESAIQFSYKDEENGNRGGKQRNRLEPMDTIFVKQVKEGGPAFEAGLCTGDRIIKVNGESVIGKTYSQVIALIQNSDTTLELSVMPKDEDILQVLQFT

T3: CARD11, Q9BXL7
T3 sequence (Q9BXL7 662-765, limits assumed, looked up): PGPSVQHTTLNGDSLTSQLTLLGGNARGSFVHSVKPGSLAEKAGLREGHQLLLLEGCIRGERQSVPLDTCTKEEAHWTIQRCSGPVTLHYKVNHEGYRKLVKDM

T4: DFNB31_1, Q9P202
T4 sequence (Q9P202 135-233, limits assumed, looked up): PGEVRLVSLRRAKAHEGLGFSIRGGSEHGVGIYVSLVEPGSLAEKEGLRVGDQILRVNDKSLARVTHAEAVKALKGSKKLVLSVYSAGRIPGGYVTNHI

T5: DFNB31_3, Q9P202
T5 sequence (Q9P202 811-907, limits assumed, looked up): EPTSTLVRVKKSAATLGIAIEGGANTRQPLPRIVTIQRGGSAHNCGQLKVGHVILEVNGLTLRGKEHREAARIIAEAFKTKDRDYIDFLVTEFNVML

T6: FRMPD1, Q5SYB0
T6 sequence (Q5SYB0 52-145, limits assumed, looked up): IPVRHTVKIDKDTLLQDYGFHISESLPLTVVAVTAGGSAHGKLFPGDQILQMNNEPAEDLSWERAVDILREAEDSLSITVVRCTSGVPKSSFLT

T7: HTRA3, P83110
T7 sequence (P83110 354-453, limits assumed, looked up): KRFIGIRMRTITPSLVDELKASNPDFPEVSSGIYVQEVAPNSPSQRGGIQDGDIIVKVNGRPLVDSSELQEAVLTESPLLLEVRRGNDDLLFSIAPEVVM

T8: PARD3B_1, Q8TEW8
T8 sequence (Q8TEW8 196-299, limits assumed, looked up): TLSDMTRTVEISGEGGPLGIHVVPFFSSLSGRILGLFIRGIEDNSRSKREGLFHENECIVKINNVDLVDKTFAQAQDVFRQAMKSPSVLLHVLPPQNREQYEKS

T9: PDZD7_3, Q9H5P4
T9 sequence (Q9H5P4 857-944, limits assumed, looked up): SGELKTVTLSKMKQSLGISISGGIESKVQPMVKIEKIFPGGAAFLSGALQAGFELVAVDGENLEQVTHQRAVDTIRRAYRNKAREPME

T10: SIPA1L2, Q9P2F8
T10 sequence (Q9P2F8 945-1036, limits assumed, looked up): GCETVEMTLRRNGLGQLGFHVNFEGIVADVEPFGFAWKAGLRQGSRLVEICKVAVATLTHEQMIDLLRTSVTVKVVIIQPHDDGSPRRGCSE

T11: SNTA1, Q13424
T11 sequence (Q13424 82-180, limits assumed, looked up): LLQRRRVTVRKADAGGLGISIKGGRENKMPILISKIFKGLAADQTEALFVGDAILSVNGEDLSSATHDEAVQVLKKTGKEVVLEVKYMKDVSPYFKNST

T12: SNTG1, Q9NSN8
T12 sequence (Q9NSN8 52-150, limits assumed, looked up): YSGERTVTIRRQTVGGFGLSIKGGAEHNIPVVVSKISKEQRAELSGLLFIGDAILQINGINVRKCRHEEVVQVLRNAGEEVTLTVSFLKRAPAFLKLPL

T13: TJP3_3, O95049
T13 sequence (O95049 375-456, limits assumed, looked up): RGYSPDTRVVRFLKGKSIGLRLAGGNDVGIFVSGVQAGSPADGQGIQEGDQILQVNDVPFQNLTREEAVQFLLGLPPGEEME

B1: PTH1R, Q03431 (peptide)
chain: LLQEEWETVM
B2: CXCR1, P25024 (peptide)
chain: SSSVNVSSNL

Target: T1, APBA2_2, Q99767
Experiment: holdup assay
Design: key: below the threshold = too weak to quantify, mostly under pKd 3.1 to 4
Conditions: plain residues with an end cap or a label only (N-terminal biotin on a linker: ado-ado)

Binder	pKd
B1	below the threshold
B2	below the threshold

Target: T2, ARHGAP21, Q5T5U3
Experiment: holdup assay
Design: key: below the threshold = too weak to quantify, mostly under pKd 3.1 to 4
Conditions: plain residues with an end cap or a label only (N-terminal biotin on a linker: ado-ado)

Binder	pKd
B1	4.11
B2	3.77

Target: T3, CARD11, Q9BXL7
Experiment: holdup assay
Design: key: below the threshold = too weak to quantify, mostly under pKd 3.1 to 4
Conditions: plain residues with an end cap or a label only (N-terminal biotin on a linker: ado-ado)

Binder	pKd
B1	below the threshold
B2	below the threshold

Target: T4, DFNB31_1, Q9P202
Experiment: holdup assay
Design: key: below the threshold = too weak to quantify, mostly under pKd 3.1 to 4
Conditions: plain residues with an end cap or a label only (N-terminal biotin on a linker: ado-ado)

Binder	pKd
B1	3.84
B2	3.56

Target: T5, DFNB31_3, Q9P202
Experiment: holdup assay
Design: key: below the threshold = too weak to quantify, mostly under pKd 3.1 to 4
Conditions: plain residues with an end cap or a label only (N-terminal biotin on a linker: ado-ado)

Binder	pKd
B1	4.17
B2	4.18

Target: T6, FRMPD1, Q5SYB0
Experiment: holdup assay
Design: key: below the threshold = too weak to quantify, mostly under pKd 3.1 to 4
Conditions: plain residues with an end cap or a label only (N-terminal biotin on a linker: ado-ado)

Binder	pKd
B1	below the threshold
B2	below the threshold

Target: GORASP1, Q9BQQ3
Experiment: holdup assay
Design: key: below the threshold = too weak to quantify, mostly under pKd 3.1 to 4
Conditions: plain residues with an end cap or a label only (N-terminal biotin on a linker: ado-ado)

Sequence of GORASP1, Q9BQQ3 (Q9BQQ3 1-208): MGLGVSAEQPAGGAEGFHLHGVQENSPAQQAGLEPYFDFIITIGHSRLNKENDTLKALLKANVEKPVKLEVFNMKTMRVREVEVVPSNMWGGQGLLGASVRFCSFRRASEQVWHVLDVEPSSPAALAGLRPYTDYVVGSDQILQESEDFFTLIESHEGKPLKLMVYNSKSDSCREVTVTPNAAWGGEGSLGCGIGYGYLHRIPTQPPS

Binder	pKd
B1	4.31
B2	below the threshold

Target: GRIP2_3, Q9C0E4
Experiment: holdup assay
Design: key: below the threshold = too weak to quantify, mostly under pKd 3.1 to 4
Conditions: plain residues with an end cap or a label only (N-terminal biotin on a linker: ado-ado)

Sequence of GRIP2_3, Q9C0E4 (Q9C0E4 238-339): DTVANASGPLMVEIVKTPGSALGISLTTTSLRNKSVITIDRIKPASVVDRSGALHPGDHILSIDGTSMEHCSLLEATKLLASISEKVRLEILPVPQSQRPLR

Binder	pKd
B1	below the threshold
B2	below the threshold

Target: GRIP2_7, Q9C0E4
Experiment: holdup assay
Design: key: below the threshold = too weak to quantify, mostly under pKd 3.1 to 4
Conditions: plain residues with an end cap or a label only (N-terminal biotin on a linker: ado-ado)

Sequence of GRIP2_7, Q9C0E4 (Q9C0E4 934-1023): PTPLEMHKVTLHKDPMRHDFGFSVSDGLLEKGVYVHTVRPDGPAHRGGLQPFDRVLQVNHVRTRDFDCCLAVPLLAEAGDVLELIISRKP

Binder	pKd
B1	below the threshold
B2	below the threshold

Target: T7, HTRA3, P83110
Experiment: holdup assay
Design: key: below the threshold = too weak to quantify, mostly under pKd 3.1 to 4
Conditions: plain residues with an end cap or a label only (N-terminal biotin on a linker: ado-ado)

Binder	pKd
B1	below the threshold
B2	below the threshold

Target: LIMK2, P53671
Experiment: holdup assay
Design: key: below the threshold = too weak to quantify, mostly under pKd 3.1 to 4
Conditions: plain residues with an end cap or a label only (N-terminal biotin on a linker: ado-ado)

Sequence of LIMK2, P53671 (P53671 143-248): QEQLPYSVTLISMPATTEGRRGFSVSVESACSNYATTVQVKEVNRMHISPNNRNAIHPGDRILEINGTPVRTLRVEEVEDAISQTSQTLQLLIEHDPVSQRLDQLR

Binder	pKd
B1	below the threshold
B2	below the threshold

Target: MAGI1_2, Q96QZ7
Experiment: holdup assay
Design: key: below the threshold = too weak to quantify, mostly under pKd 3.1 to 4
Conditions: plain residues with an end cap or a label only (N-terminal biotin on a linker: ado-ado)

Sequence of MAGI1_2, Q96QZ7 (Q96QZ7 456-580): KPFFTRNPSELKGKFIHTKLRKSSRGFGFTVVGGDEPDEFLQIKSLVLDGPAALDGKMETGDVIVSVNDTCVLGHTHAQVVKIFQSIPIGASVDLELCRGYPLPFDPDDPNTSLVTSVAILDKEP

Binder	pKd
B1	below the threshold
B2	below the threshold

Target: NHERF4_2, Q86UT5
Experiment: holdup assay
Design: key: below the threshold = too weak to quantify, mostly under pKd 3.1 to 4
Conditions: plain residues with an end cap or a label only (N-terminal biotin on a linker: ado-ado)

Sequence of NHERF4_2, Q86UT5 (Q86UT5 220-308): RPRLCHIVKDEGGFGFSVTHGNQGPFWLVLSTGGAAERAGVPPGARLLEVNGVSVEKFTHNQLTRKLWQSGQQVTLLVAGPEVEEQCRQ

Binder	pKd
B1	below the threshold
B2	below the threshold

Target: T8, PARD3B_1, Q8TEW8
Experiment: holdup assay
Design: key: below the threshold = too weak to quantify, mostly under pKd 3.1 to 4
Conditions: plain residues with an end cap or a label only (N-terminal biotin on a linker: ado-ado)

Binder	pKd
B1	4.43
B2	3.72

Target: PARD3_3, Q8TEW0
Experiment: holdup assay
Design: key: below the threshold = too weak to quantify, mostly under pKd 3.1 to 4
Conditions: plain residues with an end cap or a label only (N-terminal biotin on a linker: ado-ado)

Sequence of PARD3_3, Q8TEW0 (Q8TEW0 582-685): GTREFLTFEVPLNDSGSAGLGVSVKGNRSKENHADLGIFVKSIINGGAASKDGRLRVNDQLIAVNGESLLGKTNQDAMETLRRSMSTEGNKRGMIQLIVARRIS

Binder	pKd
B1	4.33
B2	below the threshold

Target: T9, PDZD7_3, Q9H5P4
Experiment: holdup assay
Design: key: below the threshold = too weak to quantify, mostly under pKd 3.1 to 4
Conditions: plain residues with an end cap or a label only (N-terminal biotin on a linker: ado-ado)

Binder	pKd
B1	4.45
B2	below the threshold

Target: SCRIB_1, Q14160
Experiment: holdup assay
Design: key: below the threshold = too weak to quantify, mostly under pKd 3.1 to 4
Conditions: plain residues with an end cap or a label only (N-terminal biotin on a linker: ado-ado)

Sequence of SCRIB_1, Q14160 (Q14160 718-814): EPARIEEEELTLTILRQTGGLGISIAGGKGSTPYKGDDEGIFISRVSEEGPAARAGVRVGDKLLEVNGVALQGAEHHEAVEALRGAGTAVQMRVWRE

Binder	pKd
B1	3.62
B2	below the threshold

Target: SCRIB_3, Q14160
Experiment: holdup assay
Design: key: below the threshold = too weak to quantify, mostly under pKd 3.1 to 4
Conditions: plain residues with an end cap or a label only (N-terminal biotin on a linker: ado-ado)

Sequence of SCRIB_3, Q14160 (Q14160 999-1103): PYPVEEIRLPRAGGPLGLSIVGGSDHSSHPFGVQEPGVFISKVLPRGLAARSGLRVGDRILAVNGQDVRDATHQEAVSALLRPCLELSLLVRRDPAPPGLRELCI

Binder	pKd
B1	4.64
B2	4.02

Target: T10, SIPA1L2, Q9P2F8
Experiment: holdup assay
Design: key: below the threshold = too weak to quantify, mostly under pKd 3.1 to 4
Conditions: plain residues with an end cap or a label only (N-terminal biotin on a linker: ado-ado)

Binder	pKd
B1	below the threshold
B2	below the threshold

Target: T11, SNTA1, Q13424
Experiment: holdup assay
Design: key: below the threshold = too weak to quantify, mostly under pKd 3.1 to 4
Conditions: plain residues with an end cap or a label only (N-terminal biotin on a linker: ado-ado)

Binder	pKd
B1	4.09
B2	below the threshold

Target: T12, SNTG1, Q9NSN8
Experiment: holdup assay
Design: key: below the threshold = too weak to quantify, mostly under pKd 3.1 to 4
Conditions: plain residues with an end cap or a label only (N-terminal biotin on a linker: ado-ado)

Binder	pKd
B1	below the threshold
B2	below the threshold

Target: TJP1_2, Q07157
Experiment: holdup assay
Design: key: below the threshold = too weak to quantify, mostly under pKd 3.1 to 4
Conditions: plain residues with an end cap or a label only (N-terminal biotin on a linker: ado-ado)

Sequence of TJP1_2, Q07157 (Q07157 181-274): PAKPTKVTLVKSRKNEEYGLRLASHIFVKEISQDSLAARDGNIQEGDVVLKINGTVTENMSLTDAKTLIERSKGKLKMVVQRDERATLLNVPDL

Binder	pKd
B1	below the threshold
B2	below the threshold

Target: TJP2_1, Q9UDY2
Experiment: holdup assay
Design: key: below the threshold = too weak to quantify, mostly under pKd 3.1 to 4
Conditions: plain residues with an end cap or a label only (N-terminal biotin on a linker: ado-ado)

Sequence of TJP2_1, Q9UDY2 (Q9UDY2 24-128): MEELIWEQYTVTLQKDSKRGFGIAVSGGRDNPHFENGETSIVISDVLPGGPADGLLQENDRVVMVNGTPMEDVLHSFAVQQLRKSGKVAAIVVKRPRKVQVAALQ

Binder	pKd
B1	below the threshold
B2	below the threshold

Target: T13, TJP3_3, O95049
Experiment: holdup assay
Design: key: below the threshold = too weak to quantify, mostly under pKd 3.1 to 4
Conditions: plain residues with an end cap or a label only (N-terminal biotin on a linker: ado-ado)

Binder	pKd
B1	below the threshold
B2	below the threshold
